Assay results reported in the domain aggregation screens of Martell et al. (2025).

Experiment: soluble fraction after stress (log2 fold change); higher = more stays soluble; pooled small domains, quantitative proteomics
Conditions: stress: 50 degC
Outline: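 Pooled custom libraries of small protein domains were each held under stress at 50°C. The read-out, high-throughput quantitative proteomics, tracked how much of each protein stayed soluble. This is reported as a base-two log fold change used to indicate aggregation propensity. Higher values mean more protein remains in solution.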

Row | Sequence | soluble fraction (log2)
1 | HMSTESAHLGERMLNQALRAMHIEPDQITEAHWQKLIRDYGLKKKSEILTDIGLGKRQNVMVAHQLLAMG | -0.106
2 | HMQPDFLDAKASLALLGVRPQTLYAYVSRGAIRSVPQPGTKAHLYSRSDIERVMARAAARAG | -1.12
3 | HMSGIQNNFITRLKKVLAPTIGIAEEISDLLNISIDSAYRRIRGETDFTFEEIYIITRKHKISIDEIYG | -3.58
4 | HMNPEDDLLKAIIMKYFSNAQVQVDKNVIEYLLKRVDRDYQNLYNILEKINILSLQRKSKITTHLIRDIM | -0.432
5 | HMKRLLLPGDLAGVRRHLLDRENSFHILRVLRLARGSTIEAMDDAGNRFSATLAGVKAGRALFDLAAKI | -1.54
6 | HMSLSDADVERLLEVAIDIESLEEREGLYYQANESEPYSGWGKLMYDSGQVERLVPYKDGRWEGLWTIW | -1.04
7 | HMLPDSQLMKEATAWFMRQAADDFSGAERRRLDAWRAQSPAHARAYHQVQALWNAPELQQAAAR | -0.0227
8 | HMIVPPAIPFRALGIFGPRDRPIVTFEDGPRLINAREGDVLDGRFILRRVGRESVDFAFVGLPPEITRRIP | -0.466
9 | HMFTGELESRVFELNYVDGLVASAALAGVLTDKGSATPIASRAGGENDMLLVVDRIASYSQIEKIITQLD | -0.0977
10 | HMEKKEWVIYITGAVKKPGVYRIPEGARVYQALEAAGGFTPEADRDAVNLAAMLQDGAHIKFPAVGEEV | 0.117
11 | HMAKQQTTTTAHVVTTGETLYSIAQKNGISVEELKKSNNITSDKLRPGQTLHITKVSKTSSTAK | 0.365
12 | HMETMSYAEFNAIRIGKAKLMLADPSLKIWEISEAVGYTDTAHFARTFKKLEGMSANEYRNSL | -1.12
13 | HMRIEYYDDEELDRYIGTPASGYREAAVEEFREILLTLDADDVPGWVRSLQLRGIEFPESLRPELYL | -0.575
14 | HMTSDADSLRDKTGYVAEQVTSKGGKVNLYDGGFDSLYSARSTGETISTGTEIRVVDPGGGNMLVVEPV | 0.367
15 | HMELSPAELGERLKVARETANVTQDAGAKAAGIARTTLVAIEKGQRSARIDELQTLSRRYGVSVNSLLRR | -0.135
16 | HMLGERIKQIRKQKKMTQTDVATGIITKSMLSMIENGKATPSLPALQAIARRLQVTVEELML | -0.512
17 | HMKYYIYQGVGASGELTKIAEVTDQKTYTVTGLQAKTTYRFAVSSYNGLRESTKSNIVTVTT | -0.313
18 | HMAIDLSLIPGNLLRELHGAVEDGDMYRIRELIRSISAVDEKVGKELLLLAERYDYERLLELVND | -0.384

Row | Sequence | soluble fraction (log2)
19 | HMQQELDAFKLLITVSGVGPKAAMAVLSVLPPDRLSIAVSSGDVKSIQSAQGVGKKTAERIVLELKDKM | -0.814
20 | HMTTMYKSDVKGINYDVKAKSWFLRITFNGNQIPIGHFKTEEDAINVKQQLIPYIESKDYTSILAVKAKYS | -0.4
21 | HMGTGADKNSWTIGDKVKHRKWGTGTVVKVTGAGEDAELDIAFKSEGIKRLLAAFAPIEKVK | -0.034
22 | HMAVRTELLALPAGWHGDASRLSTALAALQGVREAVVIASEGVAYLKVHGHDWDRDGARELLQN | 0.00676
23 | HMTSQVTVHVVGAVEKPGVVTLDAPSRVQDALEAAGGALPEAELSGVNLARELFDGEQIVVPAQGEDV | -0.0113
24 | HMNDLKEDTITVQSVEYIDSDDGTMVYIKDTNHQVYKQAFKEDESLIRISAGDVLHVKYQPMDNEIHLL | -0.364
25 | HMGMYAEERHQAIASLARKHGRVSVAELAERFNVTSETIRRDLDSLARRGLLTRVHGGAVPVE | 0.0963
26 | HMNPDTERIREFVAVSLKNRKVATSGEIQNMIVKQFKNFKLKSHGYSNMKSFLSSIDKIQLNSNGKYSLK | -0.355
27 | HMFKEVPVPDVKGMTLEEAKLALEKEGFILGKTEEAESTEVAAGKIISQNLEAGKIAKQGTSVNLVVSKGK | 0.24
28 | HMLKPKDLHLGDSVRVLSLNLKGTVSSLPDTKGFLFVQMGIMRSKLHISDLQLIDEPVITAP | -0.128
29 | HMTIYLSENIKRLRLEKELTQETLSEFLGVTSQSVSNWERGESYPDITMLPEIADFFKVSVDELLGVNRAE | -0.889
30 | HMTTELDTTAITPIIQKVLKANPDVVAKYKAGQQQVIGFLMGQVMRELSTKPNPKELQSLIVAQLQQA | 0.0755
31 | HMEVSVPDFTGMSKSDAQNAAKEAGLTVNFEEDYDNQVPAGQVIRSNPSAGEKVKKNSSVTVTLSKGSN | -0.0943
32 | HMSDTSELESIIAQIIEDNPKSIEDIGAGNQKAYGFLTGQVMKATKGQANPQVANKIIRELVARKLE | 0.575
33 | HMPLDYQELRNISPQAARQAILQILKANKGNVSQTARMLGITRKTVYKAMAKREAGNLDDGSRAPK | -0.554
34 | HMDLGLTDDQRLVYGLLSPTVPRSSGELLGMVDFGRSKLSRILKELIELGQVFTVGVGRGLKYKRG | -0.307
35 | HMEVIDQLFKIALTLFDIDKGENNSISQDLVDKVIEQMKTTAPTFIKRELSEDEVKKLRFEIQNHFNV | -0.221
